Seven molecules from patent publication US6613878 (CYCLACEL, dated 2003) can be followed below.

Ends that are not written are not given here. * marks the point of attachment. Biotin = O=C1N[C@H]2[C@H](CS[C@H]2CCCCC(=O)*)N1

In test [1] the target is T1, human Fen1 fused to the transcriptional activation domain of Gal4 (Gal4ACT) (human, UniProt P39748 1-380).
T1 construct: range 1-380; Yeast two hybrid prey; also called DNase IV; rad2hs
The test is described as follows: yeast two hybrid. From the text: The 89 Amino Acids From the C-terminal Region of Fen1 Bind PCNA in an Interaction Trap Proteins that interact physically with human PCNA were screened using a two hybrid interaction trap system that detects protein-protein interactions by reconstitution of a functional Gal4 transcriptional activator in the yeast *Saccharomyces cerevisiae*. A plasmid expressing human PCNA in fusion with the DNA binding domain of Gal4 (Gal4AS) was used to screen plasmids expressing fusion constructs of molecules encoded by fragments from a human cDNA library with the transcriptional activation domain of Gal4 (Gal4ACT). […] The minimal Fen1 fragment isolated in our screen (FIG. 1) encoded the 89 amino acids from the C-terminal region of the protein (full length 380 aa, (Murray et al., 1994)), therefore localising the PCNA binding site to these residues.

Test [2] has as its target T2, human PCNA (proliferating cell nuclear antigen) (human, UniProt P12004 1-261).
T2 construct: also called recombinant human PCNA
The experiment in a line: precipitation assay. The protocol:
(§1) Twenty amino acid peptides with 15 amino acid overlaps were synthesized (Chiron Mimotopes, Australia) across the 89 amino acids from the C-terminal region of Fen1 identified in the two hybrid screen as the PCNA binding site on Fen1. These peptides were linked via residues SGSG (SEQ ID NO:3) at the amino acid terminus to biotin. 2.7 µg of each peptide was incubated with 10 µl streptavidin agarose beads (Sigma) in phosphate buffered saline (PBS) for 1 hour at room temperature (r.t.) then beads were washed extensively in PBS and recovered each time by centrifugation at 11,600 g. HeLa cell lysate was added to the washed beads to a final protein concentration of 1 mg/ml and incubated with the beads on ice for 1 hour. Beads were extensively washed in PBS with 220 mM NaCl, then bound proteins removed by boiling for 8 minutes in SDS loading buffer with 0.2 M DTT. Proteins were separated on 10% SDS-PAGE then electrophoretically transferred to nitrocellulose. Blots were blocked then incubated for 1 hour r.t. with PC 10 hybridoma supernatant (Waseem & Lane, 1990) diluted 1:5 in DMEM with 10% FCS. After washing, secondary HRP-conjugated anti-mouse IgG serum at 1:1000 in 2% non-fat milk-PBS-0.2% Tween was added for 1 hour at r.t. Bound antibody was visualised using the ECL system according to the manufacturer's instructions (Amersham plc.)
To map precisely the residues of Fen1 to which PCNA binds, a series of biotinylated 20 amino acids peptides (with 15 amino acid overlaps) were synthesized representing the region of Fen1 found to interact with PCNA in the two hybrid screen (FIG. 1). Fen1 peptides (bound to streptavidin agarose beads) were incubated with human HeLa cell extracts, then beads were precipitated and bound protein analysed on immunoblots probed with monoclonal anti-PCNA antibody PC10 (Waseen & Lane, 1990).

Test [3] has as its target T2, human PCNA (proliferating cell nuclear …). The experiment in a line: peptide on streptavidin agarose beads, precipitation from HeLa extract, PC10 immunoblot. On the procedure:
as §1, with “These” for “Twenty amino acid peptides with 15 amino acid overlaps were synthesized (Chiron Mimotopes, Australia) across the 89 amino acids from the C-terminal region of Fen1 identified in the two hybrid screen as the PCNA binding site on Fen1. These”
The region of human Fen1 recognised by PCNA in the precipitation assay contains a motif highly conserved in the Fen1 family. We examined whether human PCNA could bind to his motif in the yeast homologues of Fen1, *S. pombe* rad2 and *S. pombe* RAD27/YKL510. […]
A general note: In western blotting, separated proteins are transferred to a membrane and probed.

T2 sequence (P12004 whole entry): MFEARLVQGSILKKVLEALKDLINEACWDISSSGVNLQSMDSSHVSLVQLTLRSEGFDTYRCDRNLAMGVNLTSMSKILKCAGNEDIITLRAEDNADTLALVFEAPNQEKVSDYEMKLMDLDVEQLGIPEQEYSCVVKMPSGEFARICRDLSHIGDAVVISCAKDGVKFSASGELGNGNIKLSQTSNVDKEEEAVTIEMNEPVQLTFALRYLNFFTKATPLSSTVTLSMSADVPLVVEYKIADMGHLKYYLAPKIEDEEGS
T1 sequence (P39748 whole entry, the tested form may be a part): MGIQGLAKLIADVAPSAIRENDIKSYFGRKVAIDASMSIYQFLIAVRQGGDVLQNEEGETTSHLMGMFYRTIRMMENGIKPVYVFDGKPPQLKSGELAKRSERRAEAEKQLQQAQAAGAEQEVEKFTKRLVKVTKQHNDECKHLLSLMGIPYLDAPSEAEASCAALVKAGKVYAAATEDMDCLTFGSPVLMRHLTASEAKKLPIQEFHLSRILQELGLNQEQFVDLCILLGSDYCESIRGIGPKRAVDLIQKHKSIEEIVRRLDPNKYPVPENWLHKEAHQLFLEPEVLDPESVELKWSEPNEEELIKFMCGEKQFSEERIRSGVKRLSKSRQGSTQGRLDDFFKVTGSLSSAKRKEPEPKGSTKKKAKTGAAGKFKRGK

B1: PCNA from Schizosaccharomyces pombe (other, UniProt Q03392 1-260, looked up)
chain: MLEARFQQAALLKKLLDAIKELVTDANFDCNDNGISLQAMDSSHVALVSMLIKSDGFEPYRCDRNIALGINLNALSKVLRCAQNEDLVTLKAEDTPEVLNLVFESEKNDRISDYDVKLMDIDQEHLGIPDIEYDATITMPAAEFQRITRDLLTLSDSVTINASKEGVRFSCKGDIGNGSTTLKQHTDLSDQDQSIEISLTQAVTLTFSLKYLAQFTKATPLATRVTLSMSNDVPLLVEYKMESGFLRFYLAPKIGEEDEE
notes: Two hybrid construct; the Gal4 fusion is not described for this protein; also called S. pombe PCNA; pcn1 product
Regarding B1, the binding result in test [1] is listed as “binds”.

With Biotin-SGSGTQGRLDDFFKVTGSLSSAKR [Fen1 peptide 86], the binding result in test [2] was “binds”.

For ASKTIPQGRLDSFFKPVPSS (not fully specified (N-terminus); also: biotinylated, position not given here, also called rad2 peptide) [peptide 92, 20 amino acid peptide of the conserved box of S. pombe rad2], the binding result in test [2] is recorded as “binds”.

As for Biotin-SGSGSRQGSTQGRLDDFFKVTGSL [Fen1 peptide 85], the binding result in test [2] is on record as “binds”.

For the molecule Biotin-SGSGKRLSKSRQGSTQGRLDDFFK (also called FenPBP) [Fen1 peptide 84 (Fen1PBP, Fen1-PCNA binding peptide)], the binding result in test [2] is recorded as “binds”.

With GLKSGIQGRLDGFFQVVPKT (not fully specified (N-terminus); also: biotinylated, position not given here, also called RAD27 peptide) [peptide 93, 20 amino acid peptide of the conserved box of S. cerevisiae RAD27/YKL510], the binding result in test [3] is “binds”.

B2: PCNA from Drosophila melanogaster (other, UniProt P17917 1-260, looked up)
chain: MFEARLGQATILKKILDAIKDLLNEATFDCSDSGIQLQAMDNSHVSLVSLTLRSDGFDKFRCDRNLSMGMNLGSMAKILKCANNEDNVTMKAQDNADTVTIMFESANQEKVSDYEMKLMNLDQEHLGIPETDFSCVVRMPAMEFARICRDLAQFSESVVICCTKEGVKFSASGDVGTANIKLAQTGSVDKEEEAVIIEMQEPVTLTFACRYLNAFTKATPLSTQVQLSMCADVPLVVEYAIKDLGHIRYYLAPKIEDNET
notes: Two hybrid construct; the Gal4 fusion is not described for this protein; also called D. melanogaster PCNA
B2: the binding result in test [1] was “binds”.
